From patent CN114380913A (SHANGHAI LUBRIGHT MEDICINE TECH CO LTD, dated 2022)

Key:
[1] = biological target: T1, 生物素标记的鼠PD-L1(Sino，货号:50010-M08H-B) (mouse, UniProt Q9EP73 19-238, biotin label (site not stated)); test: BLI (Octet RED96e), avidity format: Biotin mPD-L1 on SA sensor, antibody in solution
T1 construct: Bought biotinylated protein; also called Biotin mPD-L1

[2] = biological target: T2, 人PD-L1 his(Acro，货号:PD1-H5229) (human, UniProt Q9NZQ7 19-238); test: BLI (Octet RED96e), affinity format: antibody on AHC sensor, human PD-L1 his in solution
T2 construct: Bought protein; also called human PD-L1 his; not shown: His tag

[3] = biological target: T3, 生物素标记的人PD-L1(acro，货号:PD1-H82E5) (human, UniProt Q9NZQ7 19-238, biotin label (site not stated)); test: BLI (Octet RED96e), avidity format: Biotin hPD-L1 on SA sensor, antibody in solution
T3 construct: Bought biotinylated protein; also called Biotin hPD-L1; BiotinhPD-L1

[4] = biological target: T4, CHOK1-h PD-L1(GenScript M00543)细胞表面PD-L1 (human, UniProt Q9NZQ7 19-290); test: FACS competition: blocks Biotin PD-1 mFc binding to CHOK1-hPD-L1 cells
T4 construct: whole, on cells; also called 细胞表面抗原PD-L1

[5] = biological target: T5, 猴PD-L1-Fc(Acro，货号:PD1-C5253) (monkey (cynomolgus)); test: BLI (Octet RED96e), avidity format: antibody on CH1 sensor, monkey PD-L1-Fc in solution
T5 construct: Bought Fc fusion; also called Cyno PD-L1; 食蟹猴PD-L1

[6] = biological target: T4, CHOK1-h PD-L1(GenScript M00543)细胞表面PD-L1; test: FACS on CHOK1-hPD-L1 cells

T1 sequence (Q9EP73 19-238 limits assumed, stated change not applied): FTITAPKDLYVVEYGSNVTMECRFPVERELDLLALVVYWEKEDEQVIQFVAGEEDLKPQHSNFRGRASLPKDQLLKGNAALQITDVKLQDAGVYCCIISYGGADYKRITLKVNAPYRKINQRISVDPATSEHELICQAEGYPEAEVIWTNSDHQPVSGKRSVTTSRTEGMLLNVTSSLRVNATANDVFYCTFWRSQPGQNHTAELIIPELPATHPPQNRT

Kd [1]: ~0.58 nM
Kd [2]: ~26 nM
Kd [3]: ~0.15 nM
IC50 [4]: 1.02 µg/mL
Kd [5]: ~0.79 nM
EC50 [6]: 0.02 µg/mL
B1: Ab1910T2 (antibody, human IgG1, kappa, N297A, V domains shown)
VH: EVQLVESGGGLVQPGGSLRLSCAASGFPFTNYAMSWVRQAPGKGLEWVSSISGSGAGTYYADSVKGRFTISRDNSKNTLYLQMNSLRAEDTAVYYCAKDLFPTIFGVVTTNYMDVWGKGTTVTVSS
VL: DIQMTQSPSSLSASVGDRVTITCRASQSISSYLNWYQQKPGKAPKLLIYSASSLQIGVPSRFSGSGSGTDFTLTISSLQPEDFATYYCQQSYSIPVTFGQGTKVEIKR
notes: Full human IgG1 (Fc N297A) / kappa, made in ExpiCHO; also called 本申请抗PD-L1抗体Ab1910T2; 所述抗PD-L1单克隆抗体
